{
  "source": "patent US20250154231A1",
  "assay_in_all_cases": "cell-based or functional assay",
  "key": {"[1]": {"biological_target": "SARS-CoV-2 spike (S) protein, Victoria strain (SARS-CoV-2) (UniProt P0DTC2)"}, "[2]": {"biological_target": "SARS-CoV-2 spike (S) protein, Omicron BA.1 (SARS-CoV-2) (UniProt P0DTC2)"}, "[3]": {"biological_target": "SARS-CoV-2 spike (S) protein, Omicron BA.2 (SARS-CoV-2) (UniProt P0DTC2)"}, "[4]": {"biological_target": "SARS-CoV-2 spike (S) protein, Omicron BA.3 (SARS-CoV-2) (UniProt P0DTC2)"}, "[5]": {"biological_target": "SARS-CoV-2 spike (S) protein, Omicron BA.1.1 (SARS-CoV-2) (UniProt P0DTC2)"}, "[6]": {"biological_target": "SARS-CoV-2 spike (S) protein, Omicron BA.4/5 (SARS-CoV-2) (UniProt P0DTC2)"}, "[7]": {"biological_target": "SARS-CoV-2 spike (S) protein, Omicron BA.2.75 (SARS-CoV-2) (UniProt P0DTC2)"}, "[8]": {"biological_target": "SARS-CoV-2 spike (S) protein, Victoria strain (SARS-CoV-2) (UniProt P0DTC2)", "remark": "listed apart in the source"}, "[9]": {"biological_target": "SARS-CoV-2 spike (S) protein, Omicron BA.1 (SARS-CoV-2) (UniProt P0DTC2)", "remark": "listed apart in the source"}, "[10]": {"biological_target": "SARS-CoV-2 spike (S) protein, Omicron BA.2 (SARS-CoV-2) (UniProt P0DTC2)", "remark": "listed apart in the source"}, "[11]": {"biological_target": "SARS-CoV-2 spike (S) protein, Omicron BA.3 (SARS-CoV-2) (UniProt P0DTC2)", "remark": "listed apart in the source"}, "[12]": {"biological_target": "SARS-CoV-2 spike (S) protein, Omicron BA.1.1 (SARS-CoV-2) (UniProt P0DTC2)", "remark": "listed apart in the source"}, "[13]": {"biological_target": "SARS-CoV-2 spike (S) protein, Omicron BA.4.6 (SARS-CoV-2) (UniProt P0DTC2)"}, "[14]": {"biological_target": "SARS-CoV-2 spike (S) protein, Omicron BA.4/5 (SARS-CoV-2) (UniProt P0DTC2)", "remark": "listed apart in the source"}, "[15]": {"biological_target": "SARS-CoV-2 spike (S) protein, Victoria strain (SARS-CoV-2) (UniProt P0DTC2)", "remark": "listed apart in the source"}, "[16]": {"biological_target": "SARS-CoV-2 spike (S) protein, Omicron BJ.1 (SARS-CoV-2) (UniProt P0DTC2)"}, "[17]": {"biological_target": "SARS-CoV-2 spike (S) protein, Omicron BA.2 (SARS-CoV-2) (UniProt P0DTC2)", "remark": "listed apart in the source"}, "[18]": {"biological_target": "SARS-CoV-2 spike (S) protein, Omicron BA.2.75.2 (SARS-CoV-2) (UniProt P0DTC2)"}, "[19]": {"biological_target": "SARS-CoV-2 spike (S) protein, Omicron BA.2.3.20 (SARS-CoV-2) (UniProt P0DTC2)"}, "[20]": {"biological_target": "SARS-CoV-2 spike (S) protein, Omicron BA.4.6 (SARS-CoV-2) (UniProt P0DTC2)", "remark": "listed apart in the source"}, "[21]": {"biological_target": "SARS-CoV-2 spike (S) protein, Omicron BA.4/5 (SARS-CoV-2) (UniProt P0DTC2)", "remark": "listed apart in the source"}, "[22]": {"biological_target": "SARS-CoV-2 spike (S) protein, Omicron BA.2.75 (SARS-CoV-2) (UniProt P0DTC2)", "remark": "listed apart in the source"}, "[23]": {"biological_target": "SARS-CoV-2 Omicron BA.1 spike (S) protein of the live isolate (SARS-CoV-2) (UniProt P0DTC2)"}, "[24]": {"biological_target": "SARS-CoV-2 Alpha spike (S) protein (SARS-CoV-2) (UniProt P0DTC2)"}, "[25]": {"biological_target": "SARS-CoV-2 Victoria spike (S) protein (SARS-CoV-2) (UniProt P0DTC2)"}, "[26]": {"biological_target": "SARS-CoV-2 Gamma spike (S) protein (SARS-CoV-2) (UniProt P0DTC2)"}, "[27]": {"biological_target": "SARS-CoV-2 Omicron BA.2 spike (S) protein (SARS-CoV-2) (UniProt P0DTC2)"}, "[28]": {"biological_target": "SARS-CoV-2 Omicron BA.1.1 spike (S) protein (SARS-CoV-2) (UniProt P0DTC2)"}, "[29]": {"biological_target": "SARS-CoV-2 Delta spike (S) protein (SARS-CoV-2) (UniProt P0DTC2)"}, "[30]": {"biological_target": "SARS-CoV-2 Beta spike (S) protein (SARS-CoV-2) (UniProt P0DTC2)"}},
  "note": "Like-named read-outs stand apart in the source and are kept apart here.",
  "data": [
    {"substance": "Ly-CoV1404 (antibody)", "values": [
      {"measurement": "pseudovirus neutralisation IC50", "setting": "[1]", "value": 0.001, "unit": "µg/mL"},
      {"measurement": "pseudovirus neutralisation IC50", "setting": "[2]", "value": 0.002, "unit": "µg/mL"},
      {"measurement": "pseudovirus neutralisation IC50", "setting": "[3]", "value": 0.001, "unit": "µg/mL"},
      {"measurement": "pseudovirus neutralisation IC50", "setting": "[4]", "value": 0.002, "unit": "µg/mL"},
      {"measurement": "pseudovirus neutralisation IC50", "setting": "[5]", "value": 0.001, "unit": "µg/mL"},
      {"measurement": "pseudovirus neutralisation IC50", "setting": "[6]", "value": 0.002, "unit": "µg/mL"},
      {"measurement": "pseudovirus neutralisation IC50", "setting": "[7]", "value": 0.002, "unit": "µg/mL"},
      {"measurement": "IC50, pseudoviral neutralization", "setting": "[8]", "value": 0.001, "unit": "µg/mL"},
      {"measurement": "IC50, pseudoviral neutralization", "setting": "[9]", "value": 0.002, "unit": "µg/mL"},
      {"measurement": "IC50, pseudoviral neutralization", "setting": "[10]", "value": 0.001, "unit": "µg/mL"},
      {"measurement": "IC50, pseudoviral neutralization", "setting": "[11]", "value": 0.002, "unit": "µg/mL"},
      {"measurement": "IC50, pseudoviral neutralization", "setting": "[12]", "value": 0.001, "unit": "µg/mL"},
      {"measurement": "IC50, pseudoviral neutralization", "setting": "[13]", "value": 0.001, "unit": "µg/mL"},
      {"measurement": "IC50, pseudoviral neutralization", "setting": "[14]", "value": 0.002, "unit": "µg/mL"}
    ]},
    {"substance": "S309 (antibody)", "values": [
      {"measurement": "IC50, pseudoviral neutralization", "setting": "[15]", "value": 0.079, "unit": "µg/mL"},
      {"measurement": "IC50, pseudoviral neutralization", "setting": "[16]", "value": 0.431, "unit": "µg/mL"},
      {"measurement": "IC50, pseudoviral neutralization", "setting": "[17]", "value": 0.638, "unit": "µg/mL"},
      {"measurement": "IC50, pseudoviral neutralization", "setting": "[18]", "value": 0.465, "unit": "µg/mL"},
      {"measurement": "IC50, pseudoviral neutralization", "setting": "[19]", "value": 0.977, "unit": "µg/mL"},
      {"measurement": "IC50, pseudoviral neutralization", "setting": "[20]", "value": 1.03, "unit": "µg/mL"},
      {"measurement": "IC50, pseudoviral neutralization", "setting": "[21]", "value": 0.689, "unit": "µg/mL"},
      {"measurement": "IC50, pseudoviral neutralization", "setting": "[22]", "value": 0.202, "unit": "µg/mL"},
      {"measurement": "pseudovirus neutralisation IC50", "setting": "[1]", "value": 0.079, "unit": "µg/mL"},
      {"measurement": "pseudovirus neutralisation IC50", "setting": "[2]", "value": 0.113, "unit": "µg/mL"},
      {"measurement": "pseudovirus neutralisation IC50", "setting": "[4]", "value": 0.311, "unit": "µg/mL"},
      {"measurement": "pseudovirus neutralisation IC50", "setting": "[5]", "value": 0.142, "unit": "µg/mL"},
      {"measurement": "pseudovirus neutralisation IC50", "setting": "[6]", "value": 0.689, "unit": "µg/mL"},
      {"measurement": "pseudovirus neutralisation IC50", "setting": "[7]", "value": 0.202, "unit": "µg/mL"},
      {"measurement": "IC50, authentic virus neutralization", "setting": "[23]", "value": 0.256, "unit": "µg/mL"},
      {"measurement": "IC50, pseudoviral neutralization", "setting": "[8]", "value": 0.079, "unit": "µg/mL"},
      {"measurement": "pseudovirus neutralisation IC50", "setting": "[8]", "value": 0.13, "unit": "µg/mL"},
      {"measurement": "IC50, authentic virus neutralization", "setting": "[24]", "value": 0.078, "unit": "µg/mL"},
      {"measurement": "IC50, authentic virus neutralization", "setting": "[25]", "value": 0.04, "unit": "µg/mL"},
      {"measurement": "IC50, pseudoviral neutralization", "setting": "[9]", "value": 0.113, "unit": "µg/mL"},
      {"measurement": "pseudovirus neutralisation IC50", "setting": "[9]", "value": 0.094, "unit": "µg/mL"},
      {"measurement": "IC50, pseudoviral neutralization", "setting": "[10]", "value": 0.638, "unit": "µg/mL"},
      {"measurement": "pseudovirus neutralisation IC50", "setting": "[10]", "value": 0.638, "unit": "µg/mL"},
      {"measurement": "IC50, pseudoviral neutralization", "setting": "[11]", "value": 0.311, "unit": "µg/mL"},
      {"measurement": "pseudovirus neutralisation IC50", "setting": "[11]", "value": 0.228, "unit": "µg/mL"},
      {"measurement": "IC50, pseudoviral neutralization", "setting": "[12]", "value": 0.142, "unit": "µg/mL"},
      {"measurement": "pseudovirus neutralisation IC50", "setting": "[12]", "value": 0.138, "unit": "µg/mL"},
      {"measurement": "IC50, pseudoviral neutralization", "setting": "[13]", "value": 1.03, "unit": "µg/mL"},
      {"measurement": "IC50, pseudoviral neutralization", "setting": "[14]", "value": 0.689, "unit": "µg/mL"},
      {"measurement": "pseudovirus neutralisation IC50", "setting": "[14]", "value": 1.04, "unit": "µg/mL"},
      {"measurement": "IC50, authentic virus neutralization", "setting": "[26]", "value": 0.076, "unit": "µg/mL"},
      {"measurement": "IC50, authentic virus neutralization", "setting": "[27]", "value": 5.04, "unit": "µg/mL"},
      {"measurement": "IC50, authentic virus neutralization", "setting": "[28]", "value": 1.12, "unit": "µg/mL"},
      {"measurement": "IC50, authentic virus neutralization", "setting": "[29]", "value": 0.113, "unit": "µg/mL"},
      {"measurement": "IC50, authentic virus neutralization", "setting": "[30]", "value": 0.082, "unit": "µg/mL"}
    ]}
  ]
}
